From publication PMC2700855 (Proteins, 2009)

T1: RFXAP (UniProt O00287 1-272)
T1 sequence (looked up): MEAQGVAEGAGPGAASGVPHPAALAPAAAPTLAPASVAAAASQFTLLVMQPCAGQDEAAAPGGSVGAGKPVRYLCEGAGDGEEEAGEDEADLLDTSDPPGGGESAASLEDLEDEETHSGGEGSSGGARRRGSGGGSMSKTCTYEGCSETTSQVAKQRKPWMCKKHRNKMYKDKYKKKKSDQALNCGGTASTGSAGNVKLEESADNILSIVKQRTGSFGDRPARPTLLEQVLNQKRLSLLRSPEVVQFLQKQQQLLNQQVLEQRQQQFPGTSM

B1: RFXB(88-260) (domain or fragment, UniProt O14593 88-260, looked up)
chain: TLDSLSIHQLAAQGELDQLKEHLRKGDNLVNKPDERGFTPLIWASAFGEIETVRFLLEWGADPHILAKERESALSLASTGGYTDIVGLLLERDVDINIYDWNGGTPLLYAVRGNHVKCVEALLARGADLTTEADSGYTPMDLAVALGYRKVQQVIENHILKLFQSNLVPADPE
B2: RFXB (natural protein, UniProt O14593 1-260, looked up)
chain: MELTQPAEDLIQTQQTPASELGDPEDPGEEAADGSDTVVLSLFPCTPEPVNPEPDASVSSPQAGSSLKHSTTLTNRQRGNEVSALPATLDSLSIHQLAAQGELDQLKEHLRKGDNLVNKPDERGFTPLIWASAFGEIETVRFLLEWGADPHILAKERESALSLASTGGYTDIVGLLLERDVDINIYDWNGGTPLLYAVRGNHVKCVEALLARGADLTTEADSGYTPMDLAVALGYRKVQQVIENHILKLFQSNLVPADPE
B3: RFX5(25-90) (domain or fragment, UniProt P48382 25-90, looked up)
chain: GEPTTLLQRLRGTISKAVQNKVEGILQDVQKFSDNDKLYLYLQLPSGPTTGDKSSEPSTLSNEEYM
B4: RFXAP(215-272,F217Y) (domain or fragment, UniProt O00287 215-272, looked up)
chain: GSYGDRPARPTLLEQVLNQKRLSLLRSPEVVQFLQKQQQLLNQQVLEQRQQQFPGTSM
B5: RFX5(88-330) (domain or fragment, UniProt P48382 88-330, looked up)
chain: EYMYAYRWIRNHLEEHTDTCLPKQSVYDAYRKYCESLACCRPLSTANFGKIIREIFPDIKARRLGGRGQSKYCYSGIRRKTLVSMPPLPGLDLKGSESPEMGPEVTPAPRDELVEAACALTCDWAERILKRSFSSIVEVARFLLQQHLISARSAHAHVLKAMGLAEEDEHAPRERSSKPKNGLENPEGGAHKKPERLAQPPKDLEARTGAGPLARGERKKSVVESSAPGANNLQVNALVARLP
B6: RFX5(187-265) (domain or fragment, UniProt P48382 187-265, looked up)
chain: EMGPEVTPAPRDELVEAACALTCDWAERILKRSFSSIVEVARFLLQQHLISARSAHAHVLKAMGLAEEDEHAPRERSSK
B7: RFX5(1-330) (domain or fragment, UniProt P48382 1-330, looked up)
chain: MAEDEPDAKSPKTGGRAPPGGAEAGEPTTLLQRLRGTISKAVQNKVEGILQDVQKFSDNDKLYLYLQLPSGPTTGDKSSEPSTLSNEEYMYAYRWIRNHLEEHTDTCLPKQSVYDAYRKYCESLACCRPLSTANFGKIIREIFPDIKARRLGGRGQSKYCYSGIRRKTLVSMPPLPGLDLKGSESPEMGPEVTPAPRDELVEAACALTCDWAERILKRSFSSIVEVARFLLQQHLISARSAHAHVLKAMGLAEEDEHAPRERSSKPKNGLENPEGGAHKKPERLAQPPKDLEARTGAGPLARGERKKSVVESSAPGANNLQVNALVARLP
B8: RFX5(1-90) (domain or fragment, UniProt P48382 1-90, looked up)
chain: MAEDEPDAKSPKTGGRAPPGGAEAGEPTTLLQRLRGTISKAVQNKVEGILQDVQKFSDNDKLYLYLQLPSGPTTGDKSSEPSTLSNEEYM

Key:
[1] = target: RFX5(25-90)2•RFXAP(215-272) complex (UniProt P48382); test: SEC-MALS; settings: scale: RFXB(88-260) per RFX5(25-90)2•RFXAP(215-272)
RFX5(88-330) = target: B5; test: SEC
[2] = target: RFX5(25-90)2•RFXAP(215-272) complex (UniProt P48382); test: ITC
RFX5(1-330) = target: B7; test: SEC
RFXAP = target: T1, RFXAP; test: SEC
cross-linking [3] = target: the molecule itself; test: cross-linking
cross-linking [4] = target: the molecule itself; test: cross-linking; remark: listed apart in the source
RFXAP(215-272,F217Y) = target: B4; test: SEC-MALS
RFXB(88-260) = target: B1; test: SEC-MALS
RFX5(25-90) = target: B3; test: SEC
RFXB = target: B2; test: SEC
SEC-MALS = target: the molecule itself; test: SEC-MALS
SEC = target: the molecule itself; test: SEC

Binder: B1
- stoichiometry N [1]: 1
- binding result (RFX5(88-330)): binds
- Kd [2]: 75.5 nM
- stoichiometry N [2]: 1.02

Binder: B2
- binding result (RFX5(1-330)): binds
- binding result (RFXAP): binds

Binder: B3
- stoichiometry N (cross-linking [3]): 4
- stoichiometry N (cross-linking [4]): 2
- stoichiometry N (RFXAP(215-272,F217Y)): 2 RFX5(25-90) per RFXAP(215-272)

Binder: B4
- binding result (RFXB(88-260)): binds
- binding result (RFX5(25-90)): binds

Binder: B5
- binding result (RFXB): binds

Binder: B6
- stoichiometry N (SEC-MALS): 2

Binder: B7
- stoichiometry N (SEC): 2

Binder: B8
- binding result (RFXAP): binds
